Results on 20 molecules are retold here after US20260234247A1.

Assay [1] concerns the target Rhesus LILRB1 (NP_001035762.2) on CHOK1 cells (rhesus macaque) (UniProt F7H3G7). Description: flow cytometry on CHOK1-rhesus LILRB1 (NP_001035762.2) cells.
The target is the same in assay [2]. The experiment in a line: cell based blocking assay on CHOK1-rhesus LILRB1 (NP_001035762.2) cells; blocked ligand not named.

B1: LK-RB2-8 (antibody, human IgG4 S228P, kappa, V domains shown)
VH: QIQLVQSGPELKKPGETVKISCKASGYSFASYGMGWVKQAPGKGLKWLGWINTHSGVPTYADDFKGRFAFSLETSASTAYLQINNLKNEDTATYFCAHYGRPWFPYWGQGTLVTVSA
VL: DIQMTQSPASLSASVGETVTITCRTSENIYSYLAWYQQKQGKSPQLLVYNAKSLAEGVPSRFSGSGSGTQFSLRINSLQPEDFGTYYCQQHYETPLTFGAGTKLELKR
By EC50 is commonly meant the concentration giving half of the maximal effect. Higher therefore signals a less potent agent. As for B1, in assay [1], the EC50 was 15.1 nM.

B2: LK-RB2-16 (antibody, human IgG4 S228P, kappa, V domains shown)
VH: QIQLVQSGPELKKPGETVKISCKASGYTFTTYGMGWVKQAPEKGLKWMGWINTNSGAPTYGDDFKGRFAFSLETSASTAYLQINNLKNEDTATYFCAHYGRPWFAYWGQGTLVTVSA
VL: DIQMTQSPASLSASVGETVTITCRASENIYSYLAWYHQKQGESPQLLVYNAKTLAEGVPSRFSGSGSGTQFSLKINSLQPEDFGSYYCQHHYNIPLTFGAGTKLELKR
In assay [1], B2 had an EC50 of 18.5 nM.

B3: LK-RB1-50 (antibody, human IgG4 S228P, kappa, V domains shown)
VH: QVQLKQSGPGLVQPSQSLSITCTVSGFSLTSYGVHWVRQSPGKGLEWLGVIWRGGNTDYNAPFVSRLSITKDNSQSQVFFKMNSLEADDTAIYYCAKNSLDVYSSWYFDVWGTGTTVTVSS
VL: QIVLSQSPAILSAFPGEKVTMTCRASSSVSFMHWYQQKPGSSPKPWIYATSNLASGVPARFSGSGSGTSYSLTISRVEAEDAATYYCQQWSSNPLTFGAGTKLELKR
Molecule B3 registered an EC50 in assay [1] of 11.2 nM. In assay [2], this molecule came in with an EC50 of 5.68 nM and a Top Inhibition (%) of 57.8%.

B4: LK-RB1-58 (antibody, human IgG4 S228P, kappa, V domains shown)
VH: QVQLKQSGPGLVQPSQSLSITCTVSGFSLTTYGVHWVRQSPGKGLEWLGVIWRGGSTDYNAAFMSRLSITKDNSKSQVFFRMNSLQADDTARYYCAKNSLYYGSSWYFDVWGTGTTVTVSS
VL: QIVLSQSPAILSASPGEKVTMTCRASSSVSFMHWYQQKPGSSPKPWIYATSNLASGVPARFSGSGSGTSYSLTISRVEAEDAATYYCQQWSSNPPTFGGGTKLEIKR
In turn, B4 came in with an EC50 in assay [1] of 158 nM. In assay [2], this molecule showed an EC50 of 1.42 nM and a Top Inhibition (%) of 45.4%.

B5: LK-RB1-56 (antibody, human IgG4 S228P, kappa, V domains shown)
VH: QVQLKQSGPGLVQPSQSLSITCSVSGFSLTNYGVHWVRQSPGKGLEWLGVIWRGGSTDNNAAFMSRLSITKDNSKSQVFFKMNSLQADDTAIYYCAKNSDFYGSSWYFDVWGTGTTVTVSS
VL: QIVLSQSPAILSASPGEKVTMTCRASSSVSFMHWYQQKPGSSPKPWIYATSNLASGVPARFSGSGSGTSYSLTISRVEAEDAATYYCQQWSRNPPTFGAGTKLELKR
B5: the EC50 in assay [1] came to 29.2 nM. For the same molecule, in assay [2], the EC50 came to 2.42 nM and the Top Inhibition (%) came to 15.9%.

B6: LK-RB1-44 (antibody, human IgG4 S228P, kappa, V domains shown)
VH: QVQLQQSGTELAKPGASVKLSCKASGYTFTNYWMHWIKQRPGQGLEWIGYVHPTSDYTKYNQKFKDKATLTADKSSSTAYMQLNSLTYEDSAVYYCTRSSLYDTNYVFDSWGQGTTLTVSS
VL: DILLTQSPAILSVSPGERVSFSCRASQSIGRSIHWFQQRTNGSPSLLIKYASESISGIPSRFSGGGSGTDFTLSISNVESEDIADYYCQQSNNWPFTFGSGTKLEIKR
With B6, the EC50 in assay [1] came to 769 nM.

B7: LK-RB1-43 (antibody, human IgG4 S228P, kappa, V domains shown)
VH: EFQLQQSGPELMKPGASVKISCKASGYSFTDYNMNWVKQSNGKSLEWIGIIDPNYGTTTYNQKFKGRATLTVDQSSNTAYMQLNSLTSEDSAVYYCAREGRYSWFAYWGQGTLVTVSA
VL: DIQMTQSPGALSVSVGETVTITCRASENINSNLAWYQQKQGKSPQLLVYAATNLADGVPSRFSGSGSGTQYSLKINSLQSEDFGSYHCQHFWGTPFTFGSGTKLEIKR
As to B7, in assay [1], the EC50 was 1.62 nM.

B8: LK-RB1-59 (antibody, human IgG4 S228P, kappa, V domains shown)
VH: QIQLVQSGPELKKPGETVKISCKASGYTFTTYGMSWVKQAPGKGLKWMGWINTYSGVPTYADDFKGRFAFSLETSASTAYLQINNLKNEDTATYFCARRRIYYGNKGYAMDYWGQGTSVTVSS
VL: DIQMTQSPASLSVSVGETVTITCRASENIYSNLVWYQQKQGKSPQLLVYTATNLADGVPSRFSGSGSGTQFSLKINSLQSEDFGSYYCQHFWGTPWTFGGGTKLEIKR
Molecule B8 returned an EC50 in assay [1] of 40.2 nM.

B9: LK-RB1-42 (antibody, human IgG4 S228P, kappa, V domains shown)
VH: QVQLQQPGAELVKPGTSVKLSCKASGYSFISYWVYWVKQRPGQGLEWIGMIHPNSGSTNFNEKFRYKATLTVDKSSSTAYIQLSSLTSEDSAVYYCGRSDDGYPYHAMDSWGQGTSVTVSS
VL: DIVMTQSQKFMSTSVGDRVSVTCKASQNVGTNVAWYQQKPGQSPKALIYSASYRFSGVPDRFTGSGSGTDFTLTIGNVQSEDLAEYFCHQYKNYPLTFGGGTKLEIKR
As to B9, the EC50 in assay [1] amounted to 59.8 nM.

B10: LK-RB1-39 (antibody, human IgG4 S228P, kappa, V domains shown)
VH: EVQLQQSGAELVRPGASVKLSCTASGFNIKDDYVHWVNQRPEQGLEWIGWIDPENGDTGYASKFQDKATITADTSSNTAYLHLSSLTSEDTAVYYCTTTRWTGSYWGQGTTLTVSS
VL: QIVLTQSPAIMSASPGEKVTITCSASSSVNYMHWFQQKPGSSPKLWIYSTANLASGVPARFSGSGSGTSYSLTISRMEAEDAATYYCQQRSSYPPTWTFGGGTKLEIKR
Molecule B10 gave an EC50 in assay [1] of 0.36 nM. In assay [2], this molecule displayed an EC50 of 0.16 nM and a Top Inhibition (%) of 73.1%.

B11: LK-RB1-46 (antibody, human IgG4 S228P, kappa, V domains shown)
VH: EVQLQQSGPELVKPGASVKISCKTSGYTFTDYYMNWVKQSHGKSLEWIGDIYPINGDISYNQKFKGKATLTVDKSSSTVYMEIRSLTYEDSAVYYCARLAQTTSGGFDYWGQGTTLTVSS
VL: DIVLTQSPTSLAVSLGQRAIISCKASQSVSFAGTSLMHWYQQKPGQQPKLLIYRASNLKAGVPTRFSGSGSRTDFTLNIHPVEEDDAATYYCQQSREYPMYTFGGGTKLEIKR
In assay [1], B11 registered an EC50 of 2.71 nM.

B12: 15G8 (antibody, human IgG4 S228P, kappa, V domains shown)
VH: DVQLQGSGPGLVKPSETLSLTCSVTGYSITSGYYWNWIRQFPGKKLEWMGYISYDGSNNYNPSLKNRITISRDTSKNQFSLKLNSVTAADTATYYCAHGYSYYYAMDAWGQGTSVTVSS
VL: DIQMTQSPSSLSASVGDRVTITCRTSQDISNYLNWYQQKPGKAVKLLISYTSRLHSGVPSRFSGSGSGTDYTLTISSLQPEDFATYYCQQGNTLPTFGQGTKLEIKR
As for B12, the concentration giving a half-maximal response (EC50) stood at 24.1 nM in assay [1] and 4.56 nM in assay [2]. The Top Inhibition (%) in assay [2] worked out at 88.1%.

B13: LK-RB1-34 (antibody, human IgG4 S228P, kappa, V domains shown)
VH: QVQLQQSGAELVKPGASVKLSCKASGYTFTEYTIHWVKQRSGQGLEWIGWFYPGSDSIKYNEKFKDKATLTADKSSSTVYMELSRLTSEDSAVYFCSRHEGPYFTSQYYFDYWGQGTTLTVSS
VL: DILLTQSPAILSVSPGERVSFSCRASRYIGTSIHWYQQRTNGSPRLLIKYASESISGIPSRFSGSGSGTDFTLSINSVESEDIADYYCQQSNTWPLTFGAGTKLELKR
With B13, in assay [1], the EC50 was determined as 8.06 nM.

B14: LK-RB1-45 (antibody, human IgG4 S228P, kappa, V domains shown)
VH: QVQLQQSGTELARPGASVKLSCKASGYTFTNFWMHWIKQRPGQGLEWIGYVNPTSDYTKYNQKFKDKATLTADKSSSTAYMQLNSLTYEDSAVYYCTRSSLYDTNYVFDSWGQGTTLTVSS
VL: DILLTQSPAILSVSPGERVSFSCRASQSIGRSIHWYQQRTNGSPRLLIKYASESISGIPSRFSGGGSGTDFTLSISNVESEDIADYYCQQSNNWPFTFGSGTKLEIKR
Regarding B14, in assay [1], the EC50 came to 96.1 nM.

B15: LK-RB1-37 (antibody, human IgG4 S228P, kappa, V domains shown)
VH: QVQLQQPGAELVKPGASVKLSCKASGYTFTSYWMHWVKQRPGRGPEWIGRIDPNSGYARYNEKFKNKATLTADKPSSTADMHLSSLTSEDSAVYYCTRSFITTAEWFFDVWGTGTTVTVSS
VL: DILLTQSPAILSVSPGERVSFSCRASQSIGTSIHWYQQRRNGSPRLLIKYTSESISGIPSRFSGSGSGTDFTLSINSVESEDIADYYCQQSNSWPHTFGGGTKLELKR
Take B15: in assay [1], the EC50 came to 37.7 nM.

B16: LK-RB1-35 (antibody, human IgG4 S228P, kappa, V domains shown)
VH: DVQLQESGPGLEKPSQSLSLTCSVTGYSITRGYQWNWIRQFPGNKLEWMGYISYDGSNNYNPSLKNRISITRDASKNQFFLKLNSVTTEDTATYYCARRSYNSIDYWGQGTTLTVSS
VL: DIVLTQSPATLSVTPGDSVSLSCRASQSISSNLHWYQQKSHESPRLLIKYASQSISGIPSRFSGSGSGTDFTLSINSVETEDFGMYFCQQSNSWPLTFGAGTKLELKR
Molecule B16 showed a 50% effective concentration (EC50) in assay [1] of 0.64 nM.

B17: LK-RB1-36 (antibody, human IgG4 S228P, kappa, V domains shown)
VH: DVQLQESGPGLEKPSQSLSLTCSVTGYSITRGYQWNWIRQFPGNKLEWMGYISYDGSNNYNPSLKNRISIIRDTSKNQFFLKLNSVTTEDTATYYCARRSYNSIDYWGQGTTLTVSS
VL: DIVLTQSPATLSVTPGDSVSLSCRASQSISNNLHWYQQKSHESPRLLIKYASQSISGIPSRFSGSGSGTDFTLSINSVETEDFGMYFCQQSNSWPLTFGAGTKLELKR
In turn, B17 came in with an EC50 in assay [1] of 0.54 nM.

B18: LK-RB1-38 (antibody, human IgG4 S228P, kappa, V domains shown)
VH: DVQLQESGPGLVQPSQSLSLTCSVTGYSITSGYQWNWIRQLPGNKLEWMAYISFDGSNNYNPSLKNRISITRDTSKNQFFLKLKSVTTEDTATYYCARRDYDGVAYWGQGTLVTVSA
VL: EIVLTQSPATLSVTPGDRVSLSCRASQNISNYLHWYQQKSHGSPRLIIKYASQSISGIPSRFSGSGSGTDFTLSINSVETEDFGMYFCQQSNSWPLTFGAGTKLELKR
With B18, in assay [1], the EC50 is 4.97 nM.

B19: LK-RB1-51 (antibody, human IgG4 S228P, kappa, V domains shown)
VH: QVQIQQSGAELVKPGASVKLSCKASGYTFTEFPIHWIKQRSGQGLEWIGWFYPGSDNMNYNEKFKDKATLTADKSSSTVYMELSRLTSEDSAVYFCARHENAYFYAMDYWGQGTSVTVSS
VL: ENVLTQSPAIMSASLGEKVTMSCRASSSVNYMYWYQQKSDASPKIWIYYTSNLAPGVPARFSGSGSGNSYSLTISSMEGEDAATYYCQQFTSSPFTFGTGTKLEIKR
Molecule B19 yielded a half-maximal effective concentration (EC50) in assay [1] of 21.4 nM. In assay [2], this molecule registered a concentration giving a half-maximal response (EC50) of 0.87 nM and a Top Inhibition (%) of 64.9%.

B20: LK-RB1-54 (antibody, human IgG4 S228P, kappa, V domains shown)
VH: DVQLQESGPGLVKPSQSLSLTCSVTGYSITSGFYWNWIRQFPGNKLEWMGHISYDGTNNYNPSLKNRISITRDTSKNLFFLKLNSVTTEDTATFHCARGGYGGSYGFDYWGQGTTLTVSS
VL: ENVLTQSPAIMSASLGEKVTMSCRASSSVNYMYWYQQKSDASPKLWIYYTSNLAPGVPVRFSGSGSGNSYSLTISSMEGEDAATYYCQQFTSSPWTFGGGTKLEIKR
In assay [2], B20 came in with an EC50 of 1.2 nM and a Top Inhibition (%) of 54%.
